Biological target: T1, mouse PD-1 (mouse, UniProt Q02242 25-288)
T1 construct: also called 300-mouse PD-1 transfectants; 300-PD-1 transfectants
T1 sequence: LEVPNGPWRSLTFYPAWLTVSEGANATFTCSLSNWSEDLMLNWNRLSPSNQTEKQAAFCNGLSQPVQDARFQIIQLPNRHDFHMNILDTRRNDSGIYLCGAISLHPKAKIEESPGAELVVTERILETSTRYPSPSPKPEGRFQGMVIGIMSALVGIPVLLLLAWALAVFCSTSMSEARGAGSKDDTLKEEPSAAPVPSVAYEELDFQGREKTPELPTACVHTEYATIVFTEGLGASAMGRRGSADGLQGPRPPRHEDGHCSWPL
Assay: hybridoma screened by flow cytometry on PD-1 transfectants; described in words only
Description: The mice were immunized first with human PD-1-mIgG2a fusion protein (made in Freeman lab) in complete Freund's adjuvant and thereafter with alternating doses of human PD-1-mIgG2a fusion protein and mouse PD-1-Ig fusion protein in incomplete Freund's adjuvant. Mice were given a final boost with antigen and fused with SP2/0 myeloma cells. The PD-1 specific hybridomas were first identified when this fusion was screened by flow cytometry on 300-human PD-1 and 300-mouse PD-1 transfectants. Hybridomas were subcloned to stability. The mAbs were characterized for their capacity to bind to human and/or mouse PD-1 and for their affinity.

B1: 8H3 mouse anti-mouse PD-1 mAb (antibody, mouse IgG1, V domains shown)
VH: QVQLQQSGAELARPGASVKMSCKASGYTFTSYTMHWVKQRPGQGLEWIGYIHPSTGYIYYNQKFKDKATLTADKSSSTAYMQLSSLTSEDSAVYYCARKGTYLFDYWGQGTTLTVSS
VL: DIVMTQSQKFMSTSVGDRVSVTCKASQNVGTNVAWYQQKPGQSPKALIYSASYRYSGVPDRFTGSGSGTDFTLTISNMQSEDLAEYFCQQYNNYPLTFGAGTMLELK
notes: the light chain is kappa; also called 332.8H3; αPD-1 mAb (8H3)
binding result: binds

— patent US20220041726A1 (Dana-Farber, published 2022)
